Results published in CN113173995A (SHANGHAI PUBLIC HEALTH CLINICAL CT, dated 2021).

Tests used:
Assay in all cases: cell-based or functional assay
SARS-CoV-2 S蛋白突变株T376A = SARS-CoV-2 S蛋白突变株T376A (SARS-CoV-2, UniProt P0DTC2 14-1273)
SARS-CoV-2 S蛋白突变株E309D = SARS-CoV-2 S蛋白突变株E309D (SARS-CoV-2, UniProt P0DTC2 14-1273)
SARS-CoV-2 S蛋白突变株A372T = SARS-CoV-2 S蛋白突变株A372T (SARS-CoV-2, UniProt P0DTC2 14-1273)
SARS-CoV-2 S蛋白突变株P491A = SARS-CoV-2 S蛋白突变株P491A (SARS-CoV-2, UniProt P0DTC2 14-1273)
SARS-CoV-2 S蛋白突变株F342L = SARS-CoV-2 S蛋白突变株F342L (SARS-CoV-2, UniProt P0DTC2 14-1273)

Measured: 假病毒中和 IC50 (Huh-7细胞, 荧光素酶)

B1: 全人源新型冠状病毒单抗REGN10989 (antibody, V domains shown)
VH: QVQLVQSGAEVKKPGASVKVSCKASGYIFTGYYMHWVRQAPGQGLEWMGWINPNSGGANYAQKFQGRVTLTRDTSITTVYMELSRLRFDDTAVYYCARGSRYDWNQNNWFDPWGQGTLVTVSS
VL: QSALTQPASVSGSPGQSITISCTGTSSDVGTYNYVSWYQQHPGKAPKLMIFDVSNRPSGVSDRFSGSKSGNTASLTISGLQAEDEADYYCSSFTTSSTVVFGGGTKLTVL
> 50 µg/mL: SARS-CoV-2 S蛋白突变株T376A | SARS-CoV-2 S蛋白突变株E309D | SARS-CoV-2 S蛋白突变株A372T | SARS-CoV-2 S蛋白突变株P491A | SARS-CoV-2 S蛋白突变株F342L
